From paper PMC12135187, “A role for pH dynamics regulating transcription factor DNA-binding selectivity” come the findings set out here.

Holding throughout (conditions): protein: recombinant; tags: N-terminal GST (pGEX-6P-2); label: 6-FAM; blunt
Series [1] has as its target T1, FOXM1 DBD H287K (UniProt Q08050 222-360, H287K).
T1 sequence: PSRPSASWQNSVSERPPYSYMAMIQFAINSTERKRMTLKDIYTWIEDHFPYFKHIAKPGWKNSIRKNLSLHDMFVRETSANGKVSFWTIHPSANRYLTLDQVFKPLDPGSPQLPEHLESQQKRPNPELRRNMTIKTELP
In words: fluorescence anisotropy; pH 7.5; 20 mM HEPES, 140 mM KCl, 0.05 mM TCEP-HCl, pH 7.0 or 7.5 (pH titration 6.8-8.2), room temperature 30 min, 7.5 nM FAM-DNA. (Fluorescence polarisation rises when a labelled molecule tumbles more slowly, as on binding a larger partner.)

Series [2] deals with T2, FOXC2 DBD H122N (UniProt Q99958 72-172, H122N).
T2 sequence: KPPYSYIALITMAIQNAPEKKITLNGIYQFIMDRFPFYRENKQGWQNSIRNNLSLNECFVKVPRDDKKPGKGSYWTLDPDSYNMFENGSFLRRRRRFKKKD
As to the kind of experiment: fluorescence anisotropy; pH 7.0; 20 mM HEPES, 140 mM KCl, 0.05 mM TCEP-HCl, pH 7.0 or 7.5 (pH titration 6.8-8.2), room temperature 30 min, 7.5 nM FAM-DNA.

In the next series the target is T3, FOXN1 DBD WT (UniProt O15353 270-366).
T3 sequence: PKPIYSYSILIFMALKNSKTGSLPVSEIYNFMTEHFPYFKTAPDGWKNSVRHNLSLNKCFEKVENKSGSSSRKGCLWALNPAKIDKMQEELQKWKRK
As to the kind of experiment: fluorescence anisotropy; pH 7.0; higher affinity than at pH 7.5; 20 mM HEPES, 140 mM KCl, 0.05 mM TCEP-HCl, pH 7.0 or 7.5 (pH titration 6.8-8.2), room temperature 30 min, 7.5 nM FAM-DNA.

For a further series, the target named is T4, FOXC2 DBD WT (UniProt Q99958 72-172).
T4 sequence: T2 sequence with N51H
Described as above.

For the next series, the target named is T5, FOXM1 DBD WT (UniProt Q08050 222-360).
T5 sequence: T1 sequence with K66H
The series is described as above.

Series [3] addresses T2, FOXC2 DBD H122N. As to the kind of experiment: fluorescence anisotropy; pH 7.5; similar to WT at pH 7.5; 20 mM HEPES, 140 mM KCl, 0.05 mM TCEP-HCl, pH 7.0 or 7.5 (pH titration 6.8-8.2), room temperature 30 min, 7.5 nM FAM-DNA.
Series [4] addresses T6, FOXC2 DBD H122K (UniProt Q99958 72-172, H122K).
T6 sequence: T2 sequence with N51K
As to the kind of experiment: fluorescence anisotropy; pH 7.5; 20 mM HEPES, 140 mM KCl, 0.05 mM TCEP-HCl, pH 7.0 or 7.5 (pH titration 6.8-8.2), room temperature 30 min, 7.5 nM FAM-DNA.

Series [5] concerns the target T1, FOXM1 DBD H287K. In words: fluorescence anisotropy; pH 7.0; 20 mM HEPES, 140 mM KCl, 0.05 mM TCEP-HCl, pH 7.0 or 7.5 (pH titration 6.8-8.2), room temperature 30 min, 7.5 nM FAM-DNA.
Series [6] concerns the target T6, FOXC2 DBD H122K. The series is described as above.

Numbering of substitutions follows the chain as printed.

B1: FkhP (dsDNA)
DNA 1: CCATAAACAAC
DNA 2: GTTGTTTATGG
Take B1: the Ka in the series with FOXM1 DBD H287K [1] is 1.8 ± 0.27 μM (as printed; KA = 1/KD, so presumably μM^-1); with FOXC2 DBD H122N [2], 0.14 ± 0.03 μM (as printed; KA = 1/KD, so presumably μM^-1); with FOXC2 DBD H122N [3] it was 0.1 ± 0.01 μM (as printed; KA = 1/KD, so presumably μM^-1); in the series with FOXC2 DBD H122K [4], 0.91 ± 0.08 μM (as printed; KA = 1/KD, so presumably μM^-1); with FOXM1 DBD H287K [5], 4.1 ± 0.81 μM (as printed; KA = 1/KD, so presumably μM^-1); with FOXC2 DBD H122K [6], 0.86 ± 0.15 μM (as printed; KA = 1/KD, so presumably μM^-1). Moreover, the binding result in the series with FOXN1 DBD WT, with FOXC2 DBD WT and in the series with FOXM1 DBD WT was “binds” in each case.
